Assay results taken from patent publication US20240026036A1 (AstraZeneca / MedImmune, published 2024).

Legend:
[1] = target: Recombinant mouse NGF (R&D Systems) (mouse, UniProt P01139 122-241); assay: cell-based or functional assay
[2] = target: Recombinant human NGF (Sigma) (human, UniProt P01138 122-241); assay: cell-based or functional assay
Recombinant human NGF (Sigma), sequence (P01138 122-241 limits assumed): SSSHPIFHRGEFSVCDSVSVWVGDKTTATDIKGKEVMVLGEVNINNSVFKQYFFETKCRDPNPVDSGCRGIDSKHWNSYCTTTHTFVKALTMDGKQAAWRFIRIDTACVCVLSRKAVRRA

Recombinant mouse NGF (R&D Systems), sequence (P01139 122-241 limits assumed): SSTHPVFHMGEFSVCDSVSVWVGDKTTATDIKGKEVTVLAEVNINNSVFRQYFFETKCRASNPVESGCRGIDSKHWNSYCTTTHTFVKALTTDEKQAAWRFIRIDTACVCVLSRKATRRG

B1: MEDI-578 IgG1 TM YTE (antibody, V domains shown)
VH: QVQLVQSGAEVKKPGSSVKVSCKASGGTFSTYGISWVRQAPGQGLEWMGGIIPIFDTGNSAQSFQGRVTITADESTSTAYMELSSLRSEDTAVYYCARSSRIYDLNPSLTAYYDMDVWGQGTMVTVSS
VL: QSVLTQPPSVSAAPGQKVTISCSGSSSNIGNNYVSWYQQLPGTAPKLLIYDNNKRPSGIPDRFSGSKSGTSATLGITGLQTGDEADYYCGTWDSSLSAWVFGGGTKLTVL
[1]
  IC50 (read off the curve): ~0.3 nM
[2]
  IC50 (read off the curve): ~0.8 nM
